According to patent publication US20150203577A1 (Chugai, published 2015):
Substitutions are numbered along the chain they refer to.

T1: mouse FcγRIII (mouse, UniProt P08508 31-215)
T1 construct: also called mFcγRIII; mFcgRIII
T1 chain: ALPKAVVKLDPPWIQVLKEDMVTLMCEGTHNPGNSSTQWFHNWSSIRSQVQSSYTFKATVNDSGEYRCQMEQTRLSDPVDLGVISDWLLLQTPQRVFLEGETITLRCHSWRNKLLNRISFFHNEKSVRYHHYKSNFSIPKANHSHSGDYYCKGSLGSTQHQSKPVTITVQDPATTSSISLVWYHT

T2: mouse FcγRII (mouse, UniProt P08101 30-210)
T2 construct: also called mFcγRII; mFcgRII
T2 sequence: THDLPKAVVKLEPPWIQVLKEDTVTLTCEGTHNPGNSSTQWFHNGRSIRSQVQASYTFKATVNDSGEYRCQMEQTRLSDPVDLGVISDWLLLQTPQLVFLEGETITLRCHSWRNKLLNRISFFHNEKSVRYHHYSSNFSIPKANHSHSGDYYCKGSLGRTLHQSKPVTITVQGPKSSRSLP

B1: H237-MB687/MRAL-k0 (antibody, mouse IgG1, kappa)
heavy: QVQLQESGPGLVKPSETLSLTCAVSGHSISHDHAWSWVRQPPGEGLEWIGFISYSGITNYNPSLQGRVTISRDNSKNTLYLQMNSLRAEDTAVYYCARSLARTTAMDYWGEGTLVTVSSAKTTPPSVYPLAPGSAAQTNSMVTLGCLVKGYFPEPVTVTWNSGSLSSGVHTFPAVLQSDLYTLSSSVTVPSSTWPSETVTCNVAHPASSTKVDKKIVPRDCGCKPCICEPPEVELVFIFPPKPKDVLTITLTPKVTCVVVDISKDDPEVQFSWFVDDVEVHTAQTQPREEQFNSTFRSVSELPIMHQDWLNGKEFKCRVNSAAFPAPIEKTISKTKGRPKAPQVYTIPPPKEQMAKDKVSLTCMITDFFPEDITVEWQWNGQPAENYKNTQPIMDTDGSYFVYSKLNVQKSNWEAGNTFTCSVLHEGLHNHHTEKSLSHSPGK
light: not shown
notes: mouse IgG1 CH variant; copies: 2 + 2
B2: H237-MB769/MRAL-k0 (antibody, mouse IgG1, kappa)
heavy: B1 heavy with P231N, P327D
light: not shown
notes: as for B1
B3: H237-MB755/MRAL-k0 (antibody, mouse IgG1, kappa)
heavy: B1 heavy with P231N, S294L, N320D
light: not shown
notes: as for B1
B4: H237-MB718/MRAL-k0 (antibody, mouse IgG1, kappa)
heavy: B1 heavy with P231N, L235T
light: not shown
notes: as for B1
B5: H237-MB765/MRAL-k0 (antibody, mouse IgG1, kappa)
heavy: B1 heavy with P231N, N320L
light: not shown
notes: as for B1
B6: H237-MB748/MRAL-k0 (antibody, mouse IgG1, kappa)
heavy: B1 heavy with P231N, S263A
light: not shown
notes: as for B1
B7: H237-MB752/MRAL-k0 (antibody, mouse IgG1, kappa)
heavy: B1 heavy with P231N, S294L
light: not shown
notes: as for B1
B8: H237-MB763/MRAL-k0 (antibody, mouse IgG1, kappa)
heavy: B1 heavy with P231N, F292N
light: not shown
notes: as for B1
B9: H237-MB757/MRAL-k0 (antibody, mouse IgG1, kappa)
heavy: B1 heavy with P231N, S294M, N320D
light: not shown
notes: as for B1
B10: H237-MB692/MRAL-k0 (antibody, mouse IgG1, kappa)
heavy: B1 heavy with L235Y
light: not shown
notes: as for B1
B11: H237-MB767/MRAL-k0 (antibody, mouse IgG1, kappa)
heavy: B1 heavy with P231N, A326G
light: not shown
notes: as for B1
B12: H237-MB772/MRAL-k0 (antibody, mouse IgG1, kappa)
heavy: B1 heavy with P231N, E329N
light: not shown
notes: as for B1
B13: H237-MB690/MRAL-k0 (antibody, mouse IgG1, kappa)
heavy: B1 heavy with E229T, P231A, L235Y
light: not shown
notes: as for B1
B14: H237-MB764/MRAL-k0 (antibody, mouse IgG1, kappa)
heavy: B1 heavy with P231N, F292T
light: not shown
notes: as for B1
B15: H237-MB716/MRAL-k0 (antibody, mouse IgG1, kappa)
heavy: B1 heavy with P231N, L235I
light: not shown
notes: as for B1
B16: H237-MB758/MRAL-k0 (antibody, mouse IgG1, kappa)
heavy: B1 heavy with P231N, S294M, K330R
light: not shown
notes: as for B1
B17: H237-MB693/MRAL-k0 (antibody, mouse IgG1, kappa)
heavy: B1 heavy with E229T, P230D, P231Y, L235Y
light: not shown
notes: as for B1
B18: H237-MB731/MRAL-k0 (antibody, mouse IgG1, kappa)
heavy: B1 heavy with P231A, V233E
light: not shown
notes: as for B1
B19: H237-MB703/MRAL-k0 (antibody, mouse IgG1, kappa)
heavy: B1 heavy with P230A, L235N
light: not shown
notes: as for B1
B20: H237-MB715/MRAL-k0 (antibody, mouse IgG1, kappa)
heavy: B1 heavy with P231N, L235V
light: not shown
notes: as for B1
B21: H237-MB768/MRAL-k0 (antibody, mouse IgG1, kappa)
heavy: B1 heavy with P231N, A326Q
light: not shown
notes: as for B1
B22: H237-MB762/MRAL-k0 (antibody, mouse IgG1, kappa)
heavy: B1 heavy with P231N, F292E
light: not shown
notes: as for B1
B23: H237-MB753/MRAL-k0 (antibody, mouse IgG1, kappa)
heavy: B1 heavy with P231N, S294M
light: not shown
notes: as for B1
B24: H237-MB732/MRAL-k0 (antibody, mouse IgG1, kappa)
heavy: B1 heavy with P231N, V233E
light: not shown
notes: as for B1
B25: H237-MB702/MRAL-k0 (antibody, mouse IgG1, kappa)
heavy: B1 heavy with E229T, P230A, P231Y, L235N
light: not shown
notes: as for B1

Biological target: T1, mouse FcγRIII
Assay: SPR (Biacore), antibody captured on Protein L, mFcγR as analyte

Binder | Kd | relative mFcγRIII-binding activity (mIgG1 = 1)
B1 | 5320 nM | 0.1 fold
B2 | 4380 nM | 0.09 fold
B3 | 2500 nM | 0.15 fold
B4 | 5560 nM | 0.08 fold
B5 | 2560 nM | 0.15 fold
B6 | 2060 nM | 0.18 fold
B7 | 3280 nM | 0.11 fold
B8 | 3970 nM | 0.1 fold
B9 | 3230 nM | 0.11 fold
B10 | 4440 nM | 0.12 fold
B11 | 8790 nM | 0.04 fold
B12 | 3890 nM | 0.1 fold
B13 | 2710 nM | 0.19 fold
B14 | 5150 nM | 0.08 fold
B15 | 6150 nM | 0.08 fold
B16 | 2110 nM | 0.17 fold
B17 | 5410 nM | 0.09 fold
B18 | 15300 nM | 0.03 fold
B19 | 4900 nM | 0.1 fold
B20 | 11900 nM | 0.04 fold
B21 | 2030 nM | 0.2 fold
B22 | 3220 nM | 0.12 fold
B23 | 4260 nM | 0.09 fold
B24 | 13700 nM | 0.03 fold
B25 | 3520 nM | 0.14 fold

Biological target: T2, mouse FcγRII
Assay: as above

Binder | Kd | relative mFcγRII-binding activity (mIgG1 = 1)
B1 | 345 nM | 0.94 fold
B2 | 63.2 nM | 3.9 fold
B3 | 27.8 nM | 6.62 fold
B4 | 247 nM | 1.08 fold
B5 | 39.6 nM | 6.23 fold
B6 | 17.9 nM | 10.3 fold
B7 | 35.1 nM | 5.24 fold
B8 | 61.9 nM | 3.98 fold
B9 | 27.8 nM | 6.63 fold
B10 | 186 nM | 1.75 fold
B11 | 117 nM | 2.1 fold
B12 | 60.5 nM | 4.07 fold
B13 | 204 nM | 1.6 fold
B14 | 84.9 nM | 2.9 fold
B15 | 52.8 nM | 5.07 fold
B16 | 21.5 nM | 8.57 fold
B17 | 267 nM | 1.22 fold
B18 | 238 nM | 1.13 fold
B19 | 345 nM | 0.94 fold
B20 | 236 nM | 1.14 fold
B21 | 38.9 nM | 6.34 fold
B22 | 48.1 nM | 5.12 fold
B23 | 36.8 nM | 5 fold
B24 | 321 nM | 0.84 fold
B25 | 339 nM | 0.96 fold
